Reference: patent US20210198647

What was measured:
[1] = system: NlnA#1, NSC 374121, L-histidyl-L-tyrosine
[2] = system: NlnA#2, NSC 523374, D,L-histidyl-D,L-histidine

Substance | Emax, QFS (25 µM) hydrolysis [1] | Emax, QFS (25 µM) hydrolysis [2]
mouse brain-purified neurolysin | 190% (95% confidence intervals 169.2 to 210.7%) | 258% (95% confidence intervals 232.7 to 283.8%)
recombinant human neurolysin (R & D systems, product number 3814-ZN) | 203.5% (95% confidence intervals 193.7 to 213.4%) | 214.3% (95% confidence intervals 205.7 to 222.9%)
